The values below come from the RNAGym collection of RNA variant scans (doi:10.7554/elife.80360).

The chains are these.
B1: CPEB3 Ribozyme (parent)
chain: GGGGGCCACAGCAGAAGCGUUCACGUCGCGGCCCCUGUCAGAUUCUGGUGAAUCUGCGAAUUCUGCUGU

The data set covers variants of B1. Kind of data set: self-cleavage, relative activity (ratio to wild type); higher = more cleavage; co-transcriptional.
Regarding GGGGGCCACAGCAGAAGCGUUCACGUCGCGGCCCCUGUCAGGUUCUGGUGAAUCUACGAAUUCUGCUGU [A42G G56A], the self-cleavage stood at 0.761.

On to GGGGGCCACAGCAGAAGCGUUCACGUCGCGGCCCCUGUCAGGUUCUGGUGAAUCUCCGAAUUCUGCUGU [A42G G56C], for which the self-cleavage stood at 0.475.

GGGGGCCACAGCAGAAGCGUUCACGUCGCGGCCCCUGUCAGUUUCUGGUGAAUCUGCGAAUUCUGAUGU [A42U C66A]: the self-cleavage was 0.461.

With GGGGGCCACAGCAGAAGCGUUCACGUCGCGGCCCCUGUCAGUUUCUGGUGAAUCUGCGAAUUCUGUUGU [A42U C66U], the self-cleavage stood at 0.876.

With GGGGGCCACAGCAGAAGCGUUCACGUCGCGGCCCCUGUCAGGUUCUAGUGAAUCUGCGAAUUCUGCUGU [A42G G47A], the self-cleavage was 0.955.

With GGGGGCCACAGCAGAAGCGUUCACGUCGCGGCCCCUGUCAGGUUCUUGUGAAUCUGCGAAUUCUGCUGU [A42G G47U], the self-cleavage was 0.988.

With GGGGGCCACAGCAGAAGCGUUCACGUCGCGGCCCCUGUCAGGUUCUGGUGAAUCUGCGAAGUCUGCUGU [A42G U61G], the self-cleavage came out at 0.359.

Take GGGGGCCACAGCAGAAGCGUUCACGUCGCGGCCCCUGUCAGGUUCGGGUGAAUCUGCGAAUUCUGCUGU [A42G U46G]: the self-cleavage was 0.941.

As for GGGGGCCACAGCAGAAGCGUUCACGUCGCGGCCCCUGUCAGGUUCAGGUGAAUCUGCGAAUUCUGCUGU [A42G U46A], the self-cleavage stood at 0.935.

Take GGGGGCCACAGCAGAAGCGUUCACGUCGCGGCCCCUGUCAGGUUCUGGUGAAUCUGCAAAUUCUGCUGU [A42G G58A]: the self-cleavage came to 0.951.

For GGGGGCCACAGCAGAAGCGUUCACGUCGCGGCCCCUGUCAGGUUCUGGUGAAUCUGCCAAUUCUGCUGU [A42G G58C], the self-cleavage is 0.894.

Turning to GGGGGCCACAGCAGAAGCGUUCACGUCGCGGCCCCUGUCAGUUUCUGGUGAAUCUGCCAAUUCUGCUGU [A42U G58C], the self-cleavage was 0.97.

For the variant GGGGGCCACAGCAGAAGCGUUCACGUCGCGGCCCCUGUCAGUUUCUGGUGAAUCUGCAAAUUCUGCUGU [A42U G58A], the self-cleavage was 0.923.

GGGGGCCACAGCAGAAGCGUUCACGUCGCGGCCCCUGUCAGGUUCUGGUUAAUCUGCGAAUUCUGCUGU [A42G G50U]: the self-cleavage stood at 0.887.

With GGGGGCCACAGCAGAAGCGUUCACGUCGCGGCCCCUGUCAGGUUCUGUUGAAUCUGCGAAUUCUGCUGU [A42G G48U], the self-cleavage amounted to 0.948.

As for GGGGGCCACAGCAGAAGCGUUCACGUCGCGGCCCCUGUCAGGUUCUGCUGAAUCUGCGAAUUCUGCUGU [A42G G48C], the self-cleavage worked out at 0.989.

Turning to GGGGGCCACAGCAGAAGCGUUCACGUCGCGGCCCCUGUCAGUUUCUGGUGAAUCUGCGAAUUCUGCUAU [A42U G68A], the self-cleavage worked out at 0.956.

As to GGGGGCCACAGCAGAAGCGUUCACGUCGCGGCCCCUGUCAGGGUCUGGUGAAUCUGCGAAUUCUGCUGU [A42G U43G], the self-cleavage came out at 0.565.

In the case of GGGGGCCACAGCAGAAGCGUUCACGUCGCGGCCCCUGUCAGGCUCUGGUGAAUCUGCGAAUUCUGCUGU [A42G U43C], the self-cleavage was 0.935.

GGGGGCCACAGCAGAAGCGUUCACGUCGCGGCCCCUGUCAGGAUCUGGUGAAUCUGCGAAUUCUGCUGU [A42G U43A]: the self-cleavage is 0.853.

As for GGGGGCCACAGCAGAAGCGUUCACGUCGCGGCCCCUGUCAGUUACUGGUGAAUCUGCGAAUUCUGCUGU [A42U U44A], the self-cleavage is 0.898.

GGGGGCCACAGCAGAAGCGUUCACGUCGCGGCCCCUGUCAGUUUCUGGUUAAUCUGCGAAUUCUGCUGU [A42U G50U]: the self-cleavage was 0.937.

For GGGGGCCACAGCAGAAGCGUUCACGUCGCGGCCCCUGUCAGUUUCUGGUCAAUCUGCGAAUUCUGCUGU [A42U G50C], the self-cleavage was 0.809.

In the case of GGGGGCCACAGCAGAAGCGUUCACGUCGCGGCCCCUGUCAGGUUAUGGUGAAUCUGCGAAUUCUGCUGU [A42G C45A], the self-cleavage worked out at 1.01.

Regarding GGGGGCCACAGCAGAAGCGUUCACGUCGCGGCCCCUGUCAGGUUUUGGUGAAUCUGCGAAUUCUGCUGU [A42G C45U], the self-cleavage came out at 0.927.

On to GGGGGCCACAGCAGAAGCGUUCACGUCGCGGCCCCUGUCAGGUUCUGGUGAAUUUGCGAAUUCUGCUGU [A42G C54U], for which the self-cleavage was 0.799.

With GGGGGCCACAGCAGAAGCGUUCACGUCGCGGCCCCUGUCAGGUUCUGGUGAAUCUGCGUAUUCUGCUGU [A42G A59U], the self-cleavage worked out at 0.735.

As for GGGGGCCACAGCAGAAGCGUUCACGUCGCGGCCCCUGUCAGUUUCCGGUGAAUCUGCGAAUUCUGCUGU [A42U U46C], the self-cleavage is 0.781.

As to GGGGGCCACAGCAGAAGCGUUCACGUCGCGGCCCCUGUCAGUUUCUGGUGAAUCUUCGAAUUCUGCUGU [A42U G56U], the self-cleavage came out at 0.517.

GGGGGCCACAGCAGAAGCGUUCACGUCGCGGCCCCUGUCAGUUUCUGGUGAAUCUACGAAUUCUGCUGU [A42U G56A]: the self-cleavage was found to be 0.799.

For GGGGGCCACAGCAGAAGCGUUCACGUCGCGGCCCCUGUCAGGUUCUGGCGAAUCUGCGAAUUCUGCUGU [A42G U49C], the self-cleavage was determined as 0.901.

Take GGGGGCCACAGCAGAAGCGUUCACGUCGCGGCCCCUGUCAGGUUCUGGAGAAUCUGCGAAUUCUGCUGU [A42G U49A]: the self-cleavage was 0.938.

For GGGGGCCACAGCAGAAGCGUUCACGUCGCGGCCCCUGUCAGGUUCUGGGGAAUCUGCGAAUUCUGCUGU [A42G U49G], the self-cleavage came out at 0.96.

On to GGGGGCCACAGCAGAAGCGUUCACGUCGCGGCCCCUGUCAGUAUCUGGUGAAUCUGCGAAUUCUGCUGU [A42U U43A], for which the self-cleavage was determined as 0.914.

As for GGGGGCCACAGCAGAAGCGUUCACGUCGCGGCCCCUGUCAGUUUCUGGUGCAUCUGCGAAUUCUGCUGU [A42U A51C], the self-cleavage was determined as 0.839.

Turning to GGGGGCCACAGCAGAAGCGUUCACGUCGCGGCCCCUGUCAGUUUCUGGUGUAUCUGCGAAUUCUGCUGU [A42U A51U], the self-cleavage came out at 0.914.

Consider GGGGGCCACAGCAGAAGCGUUCACGUCGCGGCCCCUGUCAGUUUCUCGUGAAUCUGCGAAUUCUGCUGU [A42U G47C], for which the self-cleavage was 0.993.

Consider GGGGGCCACAGCAGAAGCGUUCACGUCGCGGCCCCUGUCAGUUUCUUGUGAAUCUGCGAAUUCUGCUGU [A42U G47U], for which the self-cleavage came to 1.02.

For GGGGGCCACAGCAGAAGCGUUCACGUCGCGGCCCCUGUCAGUUUCUGGUGAAUCUGCGAAUUCUGCUGU [A42U], the self-cleavage came to 0.965.
